Data on three molecules can be found in patent publication US7960548B2, “Keratinocyte growth factor receptor—tyrosine specific inhibitors for the prevention of cancer metastatis” (The Ohio State University Research Foundation, priority 2005, dated 2011).

The subject of data set [1] is MCF-7 cells. Briefly: KGF-mediated motility of MCF-7 cells with TK signaling pathway inhibitors. It counts as cell-based, human. The source says: (§1) In order to define the signaling pathway involved in the KGF-mediated breast cancer cell motility, we have examined the influence of inhibitors of intermediates in the TK signaling pathway (29, 30, 31). […] In addition, inhibition of Grb2, using a specific Grb2 antisense oligonucleotide, abolished KGF-mediated motility of MCF-7 cells (30, 31). […] Thus, we have observed that the KGFR-Erk1,2 pathway mediates KGF-induced cell motility in ER-positive breast cancer cells. Accordingly, inhibitors targeting the KGF/KGFR/Grb2/Erk1,2 pathway have the potential to be selective therapeutic or chemopreventive modalities against breast cancer metastasis. […] Thus we next considered the design of selective KGFR TK inhibitors to be examined in this study.

Data set [2] has as its system MCF-7 cells. Put plainly: MCF-7 nude mouse xenograft model, growth and metastasis (β-gal reporter). It is filed as in vivo, female nu/nu balb/C mice. How it is done:
In these experiments 5×10^6 viable MCF-7 cells, transfected with a β-gal reporter plasmid, were embedded into 0.2 ml Matrigel and implanted into female nude mice. Four animal/group were treated with either KGF (2.5 μg/kg) or control vehicle every other day. After 21 days of treatment the tumor, lung and liver tissue were removed and assayed for b-gal activity using a CRPG substrate for β-gal.
In order to determine the influence of KGF on tumor growth and development in vivo, we recently examined the effect of KGF treatment on the growth and metastasis of MCF-7 cells in a nude mouse xenograft model (27, 28). In these experiments 5×10^6 viable MCF-7 cells, transfected with a β-gal reporter plasmid, were embedded into 0.2 ml Matrigel and implanted into female nu/nu balb/C mice at 6 weeks of age. At 40 days after tumor cell implantation, when approximately 0.5 cm tumor masses were observed, animal were treated with either human recombinant KGF or control vehicle by intra-tumoral injections every other day for a period of 21 days. […] In tumor and tissue samples, collected at the end of the treatment period, the β-gal activity was used as a reported to quantify MCF-7 cells as previously described (27). […] However, in the connective tissue surrounding the tumors and in the lung and liver tissue samples, the β-gal activity was much greater in the KGF treated than in the control samples (FIG. 2) (28). The results of the present study indicate that KGF enhances the migration of breast cancer cells away from the tumor mass, resulting in measurable lung and liver metastasis within the 21 day treatment period.

The test system of data set [3] is MCF-7, T-47D, ZR-75-1. Briefly: KGF motility response of ER-positive human breast cancer cell lines. It is filed as cell-based. To be noted: KGF 10-50 ng/ml. How it is done:
In our previous experiments, all of the estrogen receptor (ER)-positive human breast cancer cell lines examined (MCF-7, T-47D, ZR-75-1) responded to KGF treatment (10-50 ng/ml); however, the responsiveness differed substantially among the cell lines tested.

Data set [4] relates to phospho-Erk1,2. Put plainly: Western blot of phospho-Erk1,2 in MCF-7 cells. It is filed as cell-based, human. The settings on record: 50 ng/ml KGF and/or inhibitor for 3 days. How it is done: The cells were treated with 50 ng/ml KGF and/or signal transduction inhibitor for 3 days. Equal amounts of protein (10 μg) were loaded for SDS-PAGE analysis.
as §1

Data set [5] has as its system MDA-MB-231, SK-BR-3, BT-20. Put plainly: KGF motility response of ER-negative cell lines. To be noted: KGF 10-50 ng/ml. It is filed as cell-based, human.
For data set [6], the system named is MCF-7 human cancer cells. Briefly: Motility effect of KGF by time-lapse videomicroscopy and culture wounding. It counts as cell-based. The text has this: Based on this background information, we examined the motility effect of KGF on human breast cancer cells using time-lapse videomicroscopy and culture wounding (22, 23). […] The KGF motility effect is characterized by a rapid increase in ruffling of the plasma membrane and cell scattering. […] Scanning electron microscopy of KGF-treated MCF-7 cells confirmed dramatic changes in cell morphology consistent with active cell motility (FIG. 1). […] Changes in cell morphology, associated with membrane ruffling and motility are believed to be associated with cytoskeletal reorganization and necessary for adhesion foci, cell surface ligand-receptor binding and regulation of gene transduction (24, 25). Accordingly, we have previously observed a significant alteration in the distribution of f-actin in the cytoplasm of KGF stimulated MCF-7 cells (22).

As for `COc1cccc(-c2cc(=O)c3ccccc3o2)c1N` [PD98059], the “KGF-mediated motility of MCF-7 cells” value in data set [1] was “completely abolished”.
On the same count and under the same terms, next, `O=c1c(-c2ccc(O)cc2)coc2cc(O)cc(O)c12` [genistein]: “completely abolished”.

B1: KGF: recombinant human Keratinocyte Growth Factor, member of the fibroblast growth factor family (FGF-7) (protein, UniProt P21781 32-194, looked up)
Fibroblast growth factor 7: CNDMTPEQMATNVNCSSPERHTRSYDYMEGGDIRVRRLFCRTQWYLRIDKRGKVKGTQEMKNNYNIMEIRTVAVGIVAIKGVESEFYLAMNKEGKLYAKKECNEDCNFKELILENHYNTYASAKWTHNGGEMFVALNQKGIPVRGKKTKKEQKTAHFLPMAIT
Turning to B1, in data set [2] (end of 21 day treatment), the “β-gal activity in connective tissue surrounding the tumors, lung and liver” value is “much greater”; the “β-gal activity in tumor tissue” value was “significantly less than in the controls”. The tumor volume entry in data set [2] (intra-tumoral injections every other day for 21 days, KGF 2.5 μg/kg) was “the same as in the control tumors”. For the same molecule, in data set [3], the “response to KGF treatment, ER-positive cell lines” value is given as “responded”. The “phospho-Erk1,2 protein level” value in data set [4] is recorded as “increase”. In addition, in data set [5], the “enhancement in motility, ER-negative cell lines” value is on record as “little or no enhancement”. In addition, in data set [6], the “duration of change in morphology of MCF-7 cells” value is listed as “at least 48 hours”, the “motility effect on MCF-7 cells” value is on record as “cell scattering motility effect”, the “perimeter index (PI)” value is “dose-related increase” and the “time of maximal KGF motility effect” value is listed as “one”.
